Experimental data taken from patent publication US10077436B2, “Beta-glucosidase enzymes for increased biomass saccharification” (Edeniq, Inc., priority 2013, dated 2018).
Residue numbers refer to the chain shown, from its start. Names may count otherwise.

B1: Aspergillus niger beta-glucosidase (CAB75696.1, SEQ ID NO:2) improved variant yEdQ885-BG (Aspergillus niger; Y363C/Y375F/Y610F) (protein)
chain: DELAYSPPYYPSPWANGQGDWAQAYQRAVDIVSQMTLDEKVNLTTGTGWELELCVGQTGGVPRLGVPGMCLQDSPLGVRDSDYNSAFPAGMNVAATWDKNLAYLRGKAMGQEFSDKGADIQLGPAAGPLGRSPDGGRNWEGFSPDPALSGVLFAETIKGIQDAGVVATAKHYIAYEQEHFRQAPEAQGFGFNISESGSANLDDKTMHELYLWPFADAIRAGAGAVMCSYNQINNSYGCQNSYTLNKLLKAELGFQGFVMSDWAAHHAGVSGALAGLDMSMPGDVDYDSGTSYWGTNLTISVLNGTVPQWRVDDMAVRIMAAYYKVGRDRLWTPPNFSSWTRDECGYKYYYVSEGPFEKVNQYVNVQRNHSELIRRIGADSTVLLKNDGALPLTGKERLVALIGEDAGSNPYGANGCSDRGCDNGTLAMGWGSGTANFPYLVTPEQAISNEVLKHKNGVFTATDNWAIDQIEALAKTASVSLVFVNADSGEGYINVDGNLGDRRNLTLWRNGDNVIKAAASNCNNTIVVIHSVGPVLVNEWYDNPNVTAILWGGLPGQESGNSLADVLYGRVNPGAKSPFTWGKTREAYQDFLVTEPNNGNGAPQEDFVEGVFIDYRGFDKRNETPIYEFGYGLSYTTFNYSNLEVQVLSAPAYEPASGETEAAPTFGEVGNASDYLYPSGLQRITKFIYPWLNGTDLEASSGDASYGQDSSDYLPEGATDGSAQPILPAGGGPGGNPRLYDELIRVSVTIKNTGKVAGDEVPQLYVSLGGPNEPKIVLRQFERITLQPSEETKWSTTLTRRDLANWNVEKQDWEITSYPKMVFVGSSSRKLPLRASLPTVH
notes: strain yEdQ885, BG acid/base mutant #8
B2: Aspergillus niger beta-glucosidase, wild type, yEdQ745-BG (CAB75696.1, SEQ ID NO:2) (Aspergillus niger) (protein)
chain: B1 chain with C344Y, F356Y, F591Y
notes: strain yEdQ745

Key:
Type in all cases: biochemical, Aspergillus niger
[1] = substrate: OC[C@H]1O[C@@H](O[C@H]2[C@H](O)[C@@H](O)C(O)O[C@@H]2CO)[C@H](O)[C@@H](O)[C@@H]1O; assay: BG kinetics, cellobiose hydrolysis assay (HPLC) with glucose as competitive inhibitor, yEdQ885-BG; conditions: other: cellobiose substrate, pH 4.8, 50° C.
Text: (§1) The beta-glucosidase (BG) gene from Aspergillus niger (Accession #CAB75696.1) was integrated into the TR3 yeast background at the T4U3 genomic site.
(§2) High resolution enzyme assays and kinetic testing comparing the beta-glucosidases described herein and commercial enzyme preparations were pursued to more clearly quantify differences in mutant BG enzymes compared to the wild type BG enzyme. Based on data presented herein, BG mutant YEdQ885 was selected for further analysis and compared to the BG activity present in commercial preparations of SP188 (Novozymes) and Accellerase® BG (DuPont) as well as wild type BG.
(§3) The kinetic properties of beta glucosidase are important for cellulosic hydrolysis, since in commercial situations a wide range of substrate concentrations and different product inhibition conditions will be encountered. In this example, a Michaelis-Menten kinetics model was used to describe BG kinetics. To determine these kinetic properties, BG activity assays using standard substrates pNPG and cellobiose were employed. yEdQ745-BG (wild type) and yEdQ885-BG (improved), were compared with two commercial BGs, A-BG (Accellerase®) BG from Dupont) and S-BG (Novozymes SP188 from Sigma).
(§4) BG activity assay using cellobiose is the other standard assay to measure BG or cellobiase activity, which utilizes hydrolysis of cellobiose by cellobiase into two molecules of glucose, the last step of enzymatic hydrolysis of cellulose. One cellobiase unit (commonly termed as CBU) is defined as the amount of enzyme that converts […] of cellobiose or produces 2 μmol of glucose per min. Briefly, to determine BG activity, 25 μL of diluted enzyme in 50 mM citrate buffer (pH 4.8) equilibrated to 50° C. was mixed with 25 μL cellobiose (or cellobiose/glucose mixture for the kinetic study) to start the reaction. The mixture was incubated at 50° C. for 10 min, and the reaction was terminated by incubating the mixture at 99° C. for 5 min. Different methods are available to measure the glucose produced in the assays. For the kinetic study, HPLC was used.
To determine kinetic properties using cellobiose substrate, duplicate assays with cellobiose concentrations ranging from 0.47 to 15 mM and glucose concentrations of 0, 0.9, 4.5, 6.75, and 8.1 (for A-BG) or 9 (for all the other three BGs) g/L were performed. As for pNPG substrate, the range of cellobiose substrate concentration was chosen to show detectable activity at the lowest substrate concentration and saturation stage at high substrate concentration. However, in contrast to the pNPG substrate, when there was still some activity left at glucose concentration up to 36 g/L, most of the BG activity was lost at an inhibitor level of 9 g/L when cellobiose substrate was used. […]

[2] = substrate: O=[N+]([O-])c1ccc(O[C@@H]2O[C@H](CO)[C@@H](O)[C@H](O)[C@H]2O)cc1; assay: BG kinetics, pNPG hydrolysis assay with glucose as competitive inhibitor, yEdQ885-BG; conditions: other: pNPG substrate, pH 5.0, 50° C.
Text: as §1, §2, §3
BG activity assay using pNPG is one of the two commonly used standard assays to measure BG activity, which utilizes hydrolysis of p-nitrophenyl-β-D-glucopyranoside (pNPG) by BG into a yellow colored product, p-nitrophenol (pNP), that has a strong absorbance at 405 nm. One pNPG unit is defined as the amount of enzyme that produces 1 μmol of pNP per min. Briefly, to determine BG activity, 25 μL of diluted enzyme in 200 mM sodium acetate buffer (pH 5.0) was mixed with 25 μL of the same buffer and 25 μL of RO water (or glucose solution for the kinetic study) and the mixture was preincubated at 50° C. for 5 min. The reaction was initiated by adding 25 μL of 10 mM pNPG in 200 mM sodium acetate buffer (pH 5.0) and the mixture was incubated at 50° C. for 10 min. The reaction was then terminated by adding 100 μL of 0.25 M sodium carbonate, and the amount of pNP produced was determined by measuring absorbance at 405 nm using a predetermined calibration curve. […]
To determine the kinetic properties, a competitive inhibition mechanism was hypothesized as proposed in the literature (Chauve et al, 2010; Krogh et al, 2010). […] The turnover number, Kcat, can be calculated by Equation (2), where [Et] is the total amount of enzyme.
Conventionally, linearization methods can be used to determine the kinetic parameters based on Equation (1). […] Thus, Vmax, Km and Ki can be determined simultaneously from this fitting process, and Km/Ki can then be calculated. Kcat can be obtained by Equation (2) and Kcat/Km can be calculated accordingly. […]

[3] = substrate: OC[C@H]1O[C@@H](O[C@H]2[C@H](O)[C@@H](O)C(O)O[C@@H]2CO)[C@H](O)[C@@H](O)[C@@H]1O; assay: BG kinetics, cellobiose hydrolysis assay (HPLC) with glucose as competitive inhibitor, yEdQ745-BG; conditions: other: cellobiose substrate, pH 4.8, 50° C.
Text: (§5) Accordingly, in some embodiments, the unmodified form of the beta-glucosidase is a wild-type or a naturally occurring beta-glucosidase, such as, for example, a fungal beta-glucosidase. The full nucleic acid and amino acid sequence for numerous fungal beta-glucosidases are available. The amino acid sequence of A. niger beta-glucosidase is provided as SEQ ID NO:2. Thus, in some embodiments, the unmodified beta-glucosidase is from an Aspergillus species. In some embodiments, the unmodified beta-glucosidase is from a Trichoderma species.
as §1
(§6) The BG-expressing strains were subsequently used in corn mash and corn stover simultaneous saccharification and fermentation (SSF) studies using flask scale and pilot plant fermentations. A 12-gallon corn stover fermentation was performed at 40° C. in which the beta-glucosidase secreting yeast strain was co-inoculated with three other engineered yeast strains individually expressing endoglucanase II, CBH1, and CBHII. Surviving TR3 Saccharomyces cerevisiae yeast strains individually expressing BG, EGII, CBH1 or CBH2 were recovered by plating onto solid medium. A clonal population of BG-secreting yeast was isolated and the BG gene integration confirmed. This strain is referred to herein as yEdQ745 and comprises the wild-type BG gene. The BG sequence in the Tau3 integration cassette was used for subsequent mutagenesis experiments.
as §3
as §4, with “The mixture was incubated at 50° C. for 10 min, and the reaction was terminated by incubating the mixture at 99° C. for 5 min. Different methods are available to measure the glucose produced in the assays. For the kinetic study, HPLC was used.” left out

[4] = substrate: O=[N+]([O-])c1ccc(O[C@@H]2O[C@H](CO)[C@@H](O)[C@H](O)[C@H]2O)cc1; assay: BG kinetics, pNPG hydrolysis assay with glucose as competitive inhibitor, yEdQ745-BG; conditions: other: pNPG substrate, pH 5.0, 50° C.
Text: as §5, §1, §6, §3
BG activity assay using pNPG is one of the two commonly used standard assays to measure BG activity, which utilizes hydrolysis of p-nitrophenyl-β-D-glucopyranoside (pNPG) by BG into a yellow colored product, p-nitrophenol (pNP), that has a strong absorbance at 405 nm. One pNPG unit is defined as the amount of enzyme that produces 1 μmol of pNP per min. […] The reaction was then terminated by adding 100 μL of 0.25 M sodium carbonate, and the amount of pNP produced was determined by measuring absorbance at 405 nm using a predetermined calibration curve. […]

| Protein | Km [1] [µM] | Vmax [1] [µmol/min/mg] | kcat [1] [s⁻¹] | kcat/Km [1] [M⁻¹ s⁻¹] | Km [2] [µM] | Vmax [2] [µmol/min/mg] | kcat [2] [s⁻¹] | kcat/Km [2] [M⁻¹ s⁻¹] | Km [3] [µM] | Vmax [3] [µmol/min/mg] | kcat [3] [s⁻¹] | kcat/Km [3] [M⁻¹ s⁻¹] | Km [4] [µM] | Vmax [4] [µmol/min/mg] | kcat [4] [s⁻¹] | kcat/Km [4] [M⁻¹ s⁻¹] |
| --- | --- | --- | --- | --- | --- | --- | --- | --- | --- | --- | --- | --- | --- | --- | --- | --- |
| B1 | 1450 ± 260 | 11.6 | 23.1 | 16000 | 640 ± 30 | 6.33 | 12.7 | 19800 |  |  |  |  |  |  |  |  |
| B2 |  |  |  |  |  |  |  |  | 1450 ± 290 | 4.36 | 8.72 | 6010 | 640 ± 60 | 4.17 | 8.34 | 13000 |
